From patent US20200361992A1 (PROTAGONIST THERAPEUTICS, published 2020)
Like-named read-outs stand apart in the source and are kept apart here. Values belong to the binder of their own block, whether it stands above or below them. Starred links: 1 amine or outer side, 2 acyl side, 3 side chain; linkers in the order of their positions; H or OH if unused. Positions of bridges follow the written chain, without caps; N, C: chain ends. Non-standard residues stand in square brackets, D forms with d. Groups on a side chain read outwards from the residue. Primed or numbered codes have the meaning given here. No end group written: not given here. *: point of attachment. Npc″ = L-nipecotic acid, O=C([C@H]1CCCN([*:1])C1)[*:2]; PEG12 = NCCOCCOCCOCCOCCOCCOCCOCCOCCOCCOCCOCCOCCC(=O)O; γGlu = O=C(O)[C@H](CCC(=O)[*:2])N[*:1]; Palmitoyl = CCCCCCCCCCCCCCCC(=O)*; NMeF = CN[C@@H](Cc1ccccc1)C(=O)O; β3hF = N[C@H](CC(=O)O)Cc1ccccc1; Isovaleryl = CC(C)CC(=O)*; Npc = nipecotic acid

How the values were obtained:
Assay in all cases: cell-based or functional assay
[1] = target: T1, human ferroportin (SLC40A1) fused in frame with the GFP protein, stably expressed in HEK293 cells (human, UniProt Q9NP59 1-571)
T1 sequence (looked up): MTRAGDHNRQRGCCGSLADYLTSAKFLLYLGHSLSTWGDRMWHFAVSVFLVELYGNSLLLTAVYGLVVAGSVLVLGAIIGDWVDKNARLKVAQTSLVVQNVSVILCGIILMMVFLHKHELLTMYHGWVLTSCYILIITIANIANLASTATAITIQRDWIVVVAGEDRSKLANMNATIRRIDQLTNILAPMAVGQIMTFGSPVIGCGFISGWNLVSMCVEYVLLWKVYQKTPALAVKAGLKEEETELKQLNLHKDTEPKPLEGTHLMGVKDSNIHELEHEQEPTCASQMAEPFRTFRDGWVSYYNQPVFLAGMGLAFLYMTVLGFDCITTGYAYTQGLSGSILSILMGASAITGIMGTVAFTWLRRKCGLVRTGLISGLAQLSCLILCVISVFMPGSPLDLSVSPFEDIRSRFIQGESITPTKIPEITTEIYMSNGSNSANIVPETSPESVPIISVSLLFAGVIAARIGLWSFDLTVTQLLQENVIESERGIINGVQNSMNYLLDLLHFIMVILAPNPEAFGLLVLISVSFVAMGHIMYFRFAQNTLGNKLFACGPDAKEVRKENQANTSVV

[2] = target: T1, human ferroportin (SLC40A1) fused in …; remark: listed apart in the source
[3] = target: T1, human ferroportin (SLC40A1) fused in …; remark: listed apart in the source
[4] = target: T1, human ferroportin (SLC40A1) fused in …; remark: listed apart in the source

B1: Compd ID 169 (peptide)
peptide: DTHXPCIKXKKC
modifications: N-terminal isovaleric acid; D-Asp 1; Dpa 4; (D)Lys 8; bhPhe 9; Lys(Peg11-Palm) 10; (D)Lys 11; C-terminal amide; disulfide between the two Cys (6 and 12)
- FPN IC50 [1]: 12 nM

B2: Compd ID 225 (peptide)
peptide: Isovaleryl-DTHFPCI[dK]([PEG12-Palmitoyl])F[dK]C-NH2
modifications: disulfide 6-11
SMILES: CCCCCCCCCCCCCCCC(=O)NCCOCCOCCOCCOCCOCCOCCOCCOCCOCCOCCOCCOCCC(=O)NCCCC[C@H]1NC(=O)[C@H]([C@@H](C)CC)NC(=O)[C@@H](NC(=O)[C@@H]2CCCN2C(=O)[C@H](Cc2ccccc2)NC(=O)[C@H](Cc2c[nH]cn2)NC(=O)[C@@H](NC(=O)[C@H](CC(=O)O)NC(=O)CC(C)C)[C@@H](C)O)CSSC[C@@H](C(N)=O)NC(=O)[C@@H](CCCCN)NC(=O)[C@H](Cc2ccccc2)NC1=O
- FPN IC50 [2]: 26 nM

B3: Compd ID 170 (peptide)
peptide: DTHXPCIKXKCK
modifications: N-terminal isovaleric acid; Dpa 4; (D)Lys 8; bhPhe 9; Lys(Peg11-Palm) 10; (D)Lys 12; C-terminal amide; disulfide between the two Cys (6 and 11)
- FPN IC50 [1]: 10 nM

Binder: Isovaleryl-DTHFPCI[dK]F-{IDA(βAla-Palm)-NH2} (also: dimer: two monomers joined through IDA) [Compd ID 506]
- FPN IC50 [3]: 4 nM

B4: Compd ID 509 (peptide)
chain: DTHFPCIIFK
modifications: N-terminal isovaleric acid on each monomer; D-Lys 10; the two monomers linked through IDA-[(b-Ala)-Palm]; -NH2
- FPN IC50 [3]: 433 nM

B6: Compd ID 171 (peptide)
peptide: DTHXPCIKFKCK
modifications: N-terminal isovaleric acid; bhPhe 4; (D)Lys 8; Lys(Peg11-Palm) 10; (D)Lys 12; C-terminal amide; disulfide between the two Cys (6 and 11)
- FPN IC50 [1]: 47 nM

Binder: Isovaleryl-DTHFPCI[dK]([PEG12-Palmitoyl])F[dR]C-NH2 (disulfide 6-11; not fully specified) [Compd ID 226]
- FPN IC50 [2]: 23 nM

B7: Compd ID 508 (peptide)
chain: DTHFPCIKX
modifications: N-terminal isovaleric acid on each monomer; a-MePhe 9; the two monomers linked through IDA-[(b-Ala)-Palm]; -NH2
- FPN IC50 [3]: 9 nM

B8: Compd ID 227 (peptide)
peptide: Isovaleryl-DTHFPCIK([γGlu-Palmitoyl])FKC-NH2
modifications: disulfide 6-11
SMILES: CCCCCCCCCCCCCCCC(=O)N[C@@H](CCC(=O)NCCCC[C@@H]1NC(=O)[C@H]([C@@H](C)CC)NC(=O)[C@@H](NC(=O)[C@@H]2CCCN2C(=O)[C@H](Cc2ccccc2)NC(=O)[C@H](Cc2c[nH]cn2)NC(=O)[C@@H](NC(=O)[C@H](CC(=O)O)NC(=O)CC(C)C)[C@@H](C)O)CSSC[C@@H](C(N)=O)NC(=O)[C@H](CCCCN)NC(=O)[C@H](Cc2ccccc2)NC1=O)C(=O)O
- FPN IC50 [2]: 114 nM

Binder: Isovaleryl-DTH[β3hF][Npc]CI[dK]FK([PEG12-Palmitoyl])C[dK]-NH2 (disulfide 6-11) [Compd ID 172]
- FPN IC50 [1]: 39 nM

B11: Compd ID 224 (peptide)
peptide: Isovaleryl-DTHFPCI[dK]([PEG12-Palmitoyl])FKC-NH2
modifications: disulfide 6-11
SMILES: CCCCCCCCCCCCCCCC(=O)NCCOCCOCCOCCOCCOCCOCCOCCOCCOCCOCCOCCOCCC(=O)NCCCC[C@H]1NC(=O)[C@H]([C@@H](C)CC)NC(=O)[C@@H](NC(=O)[C@@H]2CCCN2C(=O)[C@H](Cc2ccccc2)NC(=O)[C@H](Cc2c[nH]cn2)NC(=O)[C@@H](NC(=O)[C@H](CC(=O)O)NC(=O)CC(C)C)[C@@H](C)O)CSSC[C@@H](C(N)=O)NC(=O)[C@H](CCCCN)NC(=O)[C@H](Cc2ccccc2)NC1=O
- FPN IC50 [2]: 33 nM

B12: Compd ID 507 (peptide)
chain: DTHFPCIKX
modifications: N-terminal isovaleric acid on each monomer; NMe-Phe 9; the two monomers linked through IDA-[(b-Ala)-Palm]; -NH2
- FPN IC50 [3]: 10 nM

B13: Compd ID 502 (peptide)
chain: DTHFPCIKF
modifications: N-terminal isovaleric acid on each monomer; the two monomers linked through [D-Lys]-Lys[isoGlu-Palm]-NH2
- FPN IC50 [3]: 33 nM

B14: Compd ID 503 (peptide)
chain: DTHFPCIKF
modifications: N-terminal isovaleric acid on each monomer; D-Lys 8; the two monomers linked through Lys[isoGlu-Palm]-NH2
- FPN IC50 [3]: 21 nM

B15: Compd ID 175 (peptide)
peptide: DTHXPCIKXKKC
modifications: N-terminal isovaleric acid; Dpa 4; (D)Lys 8; bhPhe 9; Lys(Peg11-Palm) 10; dLys_Ac 11; C-terminal amide; disulfide between the two Cys (6 and 12)
- FPN IC50 [1]: 5 nM

Binder: Isovaleryl-DTHFPCIK[Phe(4-OCH2CH2NH2)]K-{Lys(isoGlu-Palm)-NH2} (also: dimer: two monomers linked through K-Lys[isoGlu-Palm]-NH2) [Compd ID 504]
- FPN IC50 [3]: 20 nM

B17: Compd ID 223 (peptide)
peptide: Isovaleryl-DTHFPCIK([γGlu-Palmitoyl])FC-NH2
modifications: disulfide 6-10
SMILES: CCCCCCCCCCCCCCCC(=O)N[C@@H](CCC(=O)NCCCC[C@@H]1NC(=O)[C@H]([C@@H](C)CC)NC(=O)[C@@H](NC(=O)[C@@H]2CCCN2C(=O)[C@H](Cc2ccccc2)NC(=O)[C@H](Cc2c[nH]cn2)NC(=O)[C@@H](NC(=O)[C@H](CC(=O)O)NC(=O)CC(C)C)[C@@H](C)O)CSSC[C@@H](C(N)=O)NC(=O)[C@H](Cc2ccccc2)NC1=O)C(=O)O
- FPN IC50 [2]: 47 nM

B21: Compd ID 501 (peptide)
chain: DTHFPCIKF
modifications: N-terminal isovaleric acid on each monomer; the two monomers linked through K-Lys[isoGlu-Palm]-NH2
- FPN IC50 [3]: 28 nM

B22: Compd ID 222 (peptide)
peptide: Isovaleryl-DTHFPCIK([PEG12-Palmitoyl])FC-NH2
modifications: disulfide 6-10
SMILES: CCCCCCCCCCCCCCCC(=O)NCCOCCOCCOCCOCCOCCOCCOCCOCCOCCOCCOCCOCCC(=O)NCCCC[C@@H]1NC(=O)[C@H]([C@@H](C)CC)NC(=O)[C@@H](NC(=O)[C@@H]2CCCN2C(=O)[C@H](Cc2ccccc2)NC(=O)[C@H](Cc2c[nH]cn2)NC(=O)[C@@H](NC(=O)[C@H](CC(=O)O)NC(=O)CC(C)C)[C@@H](C)O)CSSC[C@@H](C(N)=O)NC(=O)[C@H](Cc2ccccc2)NC1=O
- FPN IC50 [2]: 4 nM

Next, values leading:

- FPN IC50 [3]: 4 nM
B5: Compd ID 514 (peptide)
chain: DTHFPCIKX
modifications: N-terminal isovaleric acid on each monomer; D-Lys 8; NMe-Phe 9; the two monomers linked through IDA-[(b-Ala)-Palm]; -NH2

- FPN IC50 [3]: 8 nM
B9: Compd ID 518 (peptide)
chain: Isovaleryl-DTHF[Npc″]CI[dK][NMeF]
modifications: not fully specified (C-terminus); also: dimer: two monomers linked through IDA-[(b-Ala)-Palm]-NH2

- Potency EC50 (nM) [4]: > 10000 nM
B10: RI-Mini Hepcidin (peptide)
peptide: FICIPFHTD
modifications: all residues D-amino acids (retro inverse); free N-terminus (Hy-); C-terminal amide

- Potency EC50 [4]: 712 nM
Binder: H-DTHFPICIF-NH2 [Mini-Hepcidin 1-9]

- Potency EC50 [4]: 30 nM
B16: Ref. Compd 1 (peptide)
peptide: DTHFPCIKFKPRSKGCK
modifications: N-terminal isovaleric acid; Lys[PEG11-Palm] 10; C-terminal amide; disulfide between the two Cys (6 and 16)

- FPN IC50 [3]: 6 nM
B18: Compd ID 516 (peptide)
chain: DTHFPCIKX
modifications: N-terminal isovaleric acid on each monomer; b-homoPhe 9; the two monomers linked through IDA-[(b-Ala)-Palm]; -NH2

- FPN IC50 [3]: 5 nM
B19: Compd ID 517 (peptide)
chain: DTHFPCIKX
modifications: not fully specified; N-terminal isovaleric acid on each monomer; D-Lys 8; b-homoPhe 9; the two monomers linked through IDA-[(b-Ala)-Palm]; -NH2

- FPN IC50 [3]: 26 nM
B20: Compd ID 515 (peptide)
chain: DTHXPCIKX
modifications: N-terminal isovaleric acid on each monomer; BIP 4; D-Lys 8; NMe-Phe 9; the two monomers linked through IDA-[(b-Ala)-Palm]; -NH2
